This note sets out measurements from patent publication US6017886A, “Use of NDF peptide as growth factor for sensory epithelium” (Amgen Inc., priority 1999, dated 2000).

First the molecules themselves.
B1: FGF-10: recombinant derived FGF-10 (protein, UniProt O15520 38-208, looked up)
Fibroblast growth factor 10: QALGQDMVSPEATNSSSSSFSSPSSAGRHVRSYNHLQGDVRWRKLFSFTKYFLKIEKNGKVSGTKKENCPYSILEITSVEIGVVAVKAINSNYYLAMNKKGKLYGSKEFNNDCKLKERIEENGYNTYASFNWQHNGRQMYVALNGKGAPRRGQKTRRKNTSAHFLPMVVHS
B2: CNTF: recombinant derived ciliary-derived neurotrophic factor (CNTF) (protein, UniProt P26441 1-200, looked up)
Ciliary neurotrophic factor: MAFTEHSPLTPHRRDLCSRSIWLARKIRSDLTALTESYVKHQGLNKNINLDSADGMPVASTDQWSELTEAERLQENLQAYRTFHVLLARLLEDQQVHFTPTEGDFHQAIHTLLLQVAAFAYQIEELMILLEYKIPRNEADGMPINVGDGGLFEKKLWGLKVLQELSQWTVRSIHDLRFISSHQTGIPARGSHYIANNKKM
B3: KGF: recombinant derived keratinocyte growth factor (KGF) (protein, UniProt P21781 32-194, looked up)
Fibroblast growth factor 7: CNDMTPEQMATNVNCSSPERHTRSYDYMEGGDIRVRRLFCRTQWYLRIDKRGKVKGTQEMKNNYNIMEIRTVAVGIVAIKGVESEFYLAMNKEGKLYAKKECNEDCNFKELILENHYNTYASAKWTHNGGEMFVALNQKGIPVRGKKTKKEQKTAHFLPMAIT
B4: GDNF: recombinant derived glial-derived neurotrophic factor (GDNF) (protein, UniProt P39905 78-211, looked up)
Glial cell line-derived …: SPDKQMAVLPRRERNRQAAAANPENSRGKGRRGQRGKNRGCVLTAIHLNVTDLGLGYETKEELIFRYCSGSCDAAETTYDKILKNLSRNRRLVSDKVGQACCRPIAFDDDLSFLDDNLVYHILRKHSAKRCGCI

This experiment concerns utricular epithelium from seven day-old rats. Put plainly: BrdU incorporation (mitogenic activity) in primary culture of infant rat utricular sensory epithelium. It counts as cell-based. The note with it: 50 ng/ml, seventy-two hours culture, infant (seven day-old) rat epithelium; control 50±7. As to the method:
Sensory edithelial cells obtained from utricles in the inner ear of both seven day-old (infant) rats and six week-old (adult) rats were isolated with the use of thermolysin treatment; see Corwin et al., Abstracts of the Association for Research in Otolaryngology, Volume 18, page 87 (1995). All edges were trimmed away and the central portion of the epithelium was cut into quarters. Epithelial cells from the infant rats were cultured in DMEM/F12 with 10% FBS (Gibco BRL, Grand Island, N.Y.), and 3 micrograms per milliliter (μg/ml) of mitosis tracer BrdU (Aldrich Chemicals, Milwaukee, Wis.) for seventy-two hours, with or without 50 nanograms per milliliter (ng/ml) of the peptide of SEQ ID NO: 1 or 50 ng/ml of recombinant derived FGF-10, recombinant derived FGF-16, recombinant derived ciliary-derived neurotrophic factor (CNTF), recombinant derived neurotrophic growth facor (NGF), recombinant derived glial-derived neurotrophic factor (GDNF), recombinant derived keratinocyte growth factor (KGF), or a control (no growth factor present). The experiment was ended by fixing in 4% paraformaldehyde for one hour.
After several washes, the explants were immunostained for calretinin (a vestibular organ hair cell marker) using rabbit antiserum (SWant Swiss Antibodies, Belinzona, Switzerland), diluted 1:10,000. The secondary antibody was goat anti-rabbit immunoglobulin conjugated to biotin, diluted 1:1,000. Extensive washes were followed by incubating the explants with egg white avidin conjugated to Cy3, diluted 1:1,000. The explants were fixed again with paraformaldehyde as described above, then processed for BrdU immunostaining (a measure of cell proliferation) using standard immunostaining protocols. The mouse monoclonal ant-BrdU antibody was obtained from Caltag Laboratories of San Franscisco, Calif. The secondary antibody, a goat anti-mouse conjugated to FITC, was obtained from Antibodies, Inc. of Davis, Calif.
Regarding B1, the “number of BrdU-positive nuclei per piece of epithelium” value (“number … per piece of epithelium” for short) turned out to be 11±4.

Consider B2, for which the “number … per piece of epithelium” value is 23±3.

For B3, the “number … per piece of epithelium” value is given as 89±16.

Consider B4, for which the “number … per piece of epithelium” value is 37±13.
